We go through 1 substance from publication PMC10320017.

This experiment concerns the target SARS-CoV-1 S/native spike ectodomain (with C-terminal foldon and His tag) (SARS coronavirus Tor2 (SARS-CoV-1)). Briefly: negative-stain EM.

“SARS-CoV-1 S/native spike ectodomain (with C-terminal foldon and His tag) (domain or fragment)” showed a stoichiometry N of 3.
